# ± gives the standard deviation of the averaged measurements.
# B1: library; a variant is named by its letters at N, in order (parent)
# chain: GCUGUCACCGAGAAACUGUGAAGUAUAUCUUAAACCUGGGCACUUAAAAGAUAUAUGGAGUUAGUAGUGCAACCUGCUCGGUCUGAUGAGUCCNNNNNNGGACGAAACAGC
# What was measured:
# cyclic di-GMP [1] = variants of: B1; assay: normalized RNA/DNA level without ligand (relative to sTRSVctl = 100) (log10 (% of sTRSVctl)); HEK293T; ligand: cyclic di-GMP (c-di-GMP-II aptamer); higher = less ribozyme self-cleavage, higher mRNA level; conditions: reporter: mCherry (pCS4076), ligand present: no
# In short: (§1)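 For each 6-well well, 4 µg of library plasmid encoding mCherry-linked ribozyme switches, or eGFP-linked ones in some ligand experiments, was transfected into HEK293T. Any ligand was added 1 h before transfection, and RNA was extracted with EDTA 72 h after it, then reverse-transcribed, amplified, barcoded and sequenced. RNA level was obtained by dividing RNA reads by DNA reads, normalizing to a spiked-in non-cleaving sequence or to the top sequences, then scaling and log-transforming. The top set was 25 sequences, scaling was ×100 with log10, and ≥100 DNA reads were required.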
# cyclic di-GMP [2] = variants of: B1; assay: normalized RNA/DNA level with ligand (relative to sTRSVctl = 100) (log10 (% of sTRSVctl)); HEK293T; ligand: cyclic di-GMP (c-di-GMP-II aptamer); ligand concentration (+) RNA-Seq: 1 mM; higher = less ribozyme self-cleavage, higher mRNA level; conditions: reporter: mCherry (pCS4076), ligand present: yes
# In short: as §1
Variant,normalized RNA/DNA level without ligand (log10) (cyclic di-GMP [1]),normalized RNA/DNA level with ligand (log10) (cyclic di-GMP [2])
CACCUG,1.76 ± 0.023,1.85 ± 0.06
CACCUC,1.704 ± 0.014,1.87 ± 0.098
AAAUGG,1.5 ± 0.092,1.68 ± 0.076
CACUCG,1.82 ± 0.042,1.87 ± 0.11
CACUCC,1.74 ± 0.077,1.84 ± 0.091
CACUCA,1.39 ± 0.1,1.62 ± 0.093
CACUCU,1.6 ± 0.019,1.77 ± 0.12
CACCCG,1.81 ± 0.025,1.94 ± 0.12
CACCCA,1.59 ± 0.097,1.75 ± 0.077
UACCAA,1.66 ± 0.022,1.8 ± 0.12
UACCAC,1.698 ± 0.0019,1.82 ± 0.11
UACCAG,1.701 ± 0.003,1.83 ± 0.11
UACCUC,1.79 ± 0.0062,1.93 ± 0.093
UACCUG,1.724 ± 0.0039,1.87 ± 0.091
UACCUU,1.637 ± 0.0055,1.82 ± 0.12
UACCUA,1.68 ± 0.018,1.82 ± 0.081
CACACG,1.75 ± 0.036,1.83 ± 0.095
GACGAG,1.56 ± 0.091,1.71 ± 0.071
GACGAC,1.608 ± 0.0074,1.78 ± 0.13
CAAGUG,1.68 ± 0.045,1.84 ± 0.12
CAAGUC,1.7 ± 0.055,1.78 ± 0.14
AACCAG,1.6 ± 0.035,1.73 ± 0.13
AACCAC,1.668 ± 0.0054,1.81 ± 0.11

Variant,normalized RNA/DNA level without ligand (log10) (cyclic di-GMP [1]),normalized RNA/DNA level with ligand (log10) (cyclic di-GMP [2])
UACAUU,1.59 ± 0.034,1.78 ± 0.09
UACAUG,1.711 ± 0.013,1.85 ± 0.14
UACAUA,1.712 ± 0.017,1.86 ± 0.065
UACAUC,1.64 ± 0.037,1.81 ± 0.13
UACUGA,1.66 ± 0.044,1.82 ± 0.11
UAAUAU,1.64 ± 0.017,1.78 ± 0.11
UAAUAC,1.68 ± 0.013,1.81 ± 0.075
UAAUAA,1.66 ± 0.018,1.8 ± 0.085
CACGGU,1.685 ± 0.015,1.84 ± 0.064
CACGGG,1.63 ± 0.04,1.8 ± 0.06
CACGGC,1.747 ± 0.0044,1.89 ± 0.11
AACGCA,1.67 ± 0.024,1.83 ± 0.076
AACGCG,1.702 ± 0.008,1.82 ± 0.12
GAAUAU,1.59 ± 0.039,1.79 ± 0.077
GAAUAC,1.62 ± 0.026,1.78 ± 0.095
CAAUAG,1.73 ± 0.024,1.83 ± 0.14
CAAUAC,1.592 ± 0.015,1.73 ± 0.13
GAAGGC,1.62 ± 0.023,1.79 ± 0.13
GAAGGG,1.53 ± 0.048,1.69 ± 0.079
GAAGGU,1.58 ± 0.08,1.77 ± 0.052
AACUCU,1.73 ± 0.06,1.88 ± 0.12
AACUCG,1.66 ± 0.047,1.82 ± 0.085
AACUCA,1.65 ± 0.035,1.8 ± 0.088

Variant,normalized RNA/DNA level without ligand (log10) (cyclic di-GMP [1]),normalized RNA/DNA level with ligand (log10) (cyclic di-GMP [2])
UAAGCU,1.7 ± 0.031,1.83 ± 0.097
UAAGCG,1.75 ± 0.023,1.86 ± 0.089
AACGAA,1.38 ± 0.059,1.59 ± 0.16
AACGAC,1.6 ± 0.04,1.79 ± 0.12
UAAUCA,1.756 ± 0.0092,1.87 ± 0.072
UAAUCC,1.8 ± 0.031,1.89 ± 0.077
AACAAC,1.542 ± 0.01,1.75 ± 0.11
AACAAA,1.45 ± 0.11,1.65 ± 0.079
GACGUG,1.71 ± 0.052,1.83 ± 0.11
GACGUA,1.665 ± 0.013,1.8 ± 0.085
GACGUC,1.671 ± 0.014,1.87 ± 0.1
GACGUU,1.619 ± 0.0079,1.81 ± 0.12
GACGGG,1.76 ± 0.027,1.85 ± 0.062
GACGGU,1.633 ± 0.0071,1.8 ± 0.11
GACGGC,1.627 ± 0.0064,1.72 ± 0.088
GAAGCU,1.715 ± 0.017,1.83 ± 0.11
GACCAU,1.64 ± 0.022,1.79 ± 0.13
GACCAC,1.69 ± 0.056,1.85 ± 0.12
GACCAG,1.82 ± 0.088,1.91 ± 0.13
GACCAA,1.52 ± 0.083,1.71 ± 0.065
CACUAG,1.759 ± 0.017,1.88 ± 0.14
CACUAC,1.64 ± 0.037,1.77 ± 0.11
CACUAU,1.52 ± 0.067,1.72 ± 0.076

Variant,normalized RNA/DNA level without ligand (log10) (cyclic di-GMP [1]),normalized RNA/DNA level with ligand (log10) (cyclic di-GMP [2])
UACUCA,1.77 ± 0.062,1.89 ± 0.18
UACUCU,1.73 ± 0.053,1.84 ± 0.07
UACUCC,1.76 ± 0.035,1.9 ± 0.14
UACUCG,1.77 ± 0.06,1.88 ± 0.17
GACUCU,1.704 ± 0.005,1.84 ± 0.12
GACUCA,1.709 ± 0.011,1.83 ± 0.11
GACUCC,1.77 ± 0.0029,1.89 ± 0.079
GACUCG,1.78 ± 0.081,1.87 ± 0.074
AAAUCU,1.7 ± 0.026,1.82 ± 0.13
AAAUCC,1.71 ± 0.049,1.83 ± 0.091
AAAUCG,1.54 ± 0.12,1.73 ± 0.061
AAAUCA,1.595 ± 0.0024,1.77 ± 0.098
UACGCC,1.77 ± 0.021,1.87 ± 0.12
UACGCG,1.81 ± 0.04,1.9 ± 0.11
UACGCA,1.78 ± 0.018,1.89 ± 0.067
UACCGC,1.73 ± 0.031,1.86 ± 0.14
UACCGG,1.68 ± 0.025,1.87 ± 0.11
UACCGU,1.59 ± 0.027,1.75 ± 0.1
UACCGA,1.56 ± 0.058,1.77 ± 0.068
CACGUU,1.729 ± 0.0022,1.86 ± 0.088
CACGUA,1.504 ± 0.014,1.7 ± 0.056
CACGUC,1.73 ± 0.075,1.87 ± 0.11
AACCCG,1.665 ± 0.014,1.81 ± 0.06

Variant,normalized RNA/DNA level without ligand (log10) (cyclic di-GMP [1]),normalized RNA/DNA level with ligand (log10) (cyclic di-GMP [2])
AACCCA,1.621 ± 0.0091,1.81 ± 0.13
AACGGC,1.68 ± 0.017,1.8 ± 0.071
AACGGG,1.51 ± 0.084,1.68 ± 0.098
AACGGU,1.52 ± 0.049,1.77 ± 0.1
CAAUCG,1.77 ± 0.039,1.89 ± 0.16
AACGUU,1.65 ± 0.056,1.82 ± 0.16
AACGUC,1.66 ± 0.024,1.78 ± 0.11
AACGUA,1.51 ± 0.024,1.73 ± 0.1
AACGUG,1.55 ± 0.083,1.7 ± 0.096
AACCUG,1.57 ± 0.029,1.73 ± 0.092
AACCUC,1.757 ± 0.0019,1.85 ± 0.058
AACCUA,1.51 ± 0.041,1.71 ± 0.13
AACAUU,1.7 ± 0.037,1.84 ± 0.067
AACAUA,1.52 ± 0.076,1.74 ± 0.12
CACGAC,1.67 ± 0.053,1.83 ± 0.13
CACGAG,1.63 ± 0.028,1.81 ± 0.076
CACGAU,1.68 ± 0.032,1.83 ± 0.089
CACUGA,1.65 ± 0.039,1.77 ± 0.1
UACGGG,1.62 ± 0.048,1.79 ± 0.09
UACGGC,1.72 ± 0.033,1.84 ± 0.1
UACGGU,1.6 ± 0.032,1.78 ± 0.098
UACGAU,1.63 ± 0.046,1.8 ± 0.15
UACGAC,1.67 ± 0.017,1.82 ± 0.11
